According to PMC5960625 (Biochemical pharmacology, 2018):
Each block holds one molecule with its values, some of them ahead of it.

Tests used:
[1] = target: GAL4DBD-NCoR fusion (nuclear receptor co-repressor); test: two-hybrid
[2] = target: GAL4DBD-SMRT fusion (silencing mediator for retinoid or thyroid hormone receptors); test: two-hybrid
[3] = target: T1, constitutive androstane receptor (hCAR1) (Homo sapiens, UniProt Q14994); test: SPR; type: binding
T1 sequence (Q14994 109-352 limits assumed): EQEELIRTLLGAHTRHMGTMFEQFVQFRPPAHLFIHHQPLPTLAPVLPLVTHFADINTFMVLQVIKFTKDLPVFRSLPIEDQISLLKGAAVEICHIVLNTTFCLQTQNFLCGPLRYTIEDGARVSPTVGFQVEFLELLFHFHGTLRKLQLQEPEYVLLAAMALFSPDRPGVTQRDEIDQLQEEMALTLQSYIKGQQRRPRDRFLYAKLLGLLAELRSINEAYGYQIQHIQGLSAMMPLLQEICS

[4] = target: T2, human CAR ligand-binding domain (hCAR1-LBD), purified (human); test: HDX-MS
T2 chain: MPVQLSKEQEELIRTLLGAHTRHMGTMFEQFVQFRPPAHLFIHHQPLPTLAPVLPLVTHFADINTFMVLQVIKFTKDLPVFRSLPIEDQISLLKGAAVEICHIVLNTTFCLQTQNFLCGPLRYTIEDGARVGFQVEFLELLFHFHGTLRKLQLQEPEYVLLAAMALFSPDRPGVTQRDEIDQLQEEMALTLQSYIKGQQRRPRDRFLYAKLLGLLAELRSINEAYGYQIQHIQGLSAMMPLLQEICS

Molecule: VP16AD-hCAR1 F217A (full length) (receptor)
loss of interaction [1]: 75%
loss of interaction [2]: 50%

Molecule: VP16AD-hCAR1 Y224A (full length) (receptor)
loss of interaction [1]: 75%
loss of interaction [2]: 50%

Other lines, results leading:

Kd [3]: ~548 µM
Molecule: CCOC(=O)Nc1ccc2c(c1)N(C(=O)CN(CC)CC)c1ccccc1CC2 [CINPA1]

binding result [4]: binds
B1: NCoR1-3 cofactor peptide (peptide)
peptide: ASNLGLEDIIRKALMGSFD
